In patent publication US6770740B1, “Crosslinked DNA condesate compositions and gene delivery methods” (The Regents of the University of Michigan, priority 1999, dated 2004):
Where no end group is shown, it is not given here. The star is where a group is joined. Carboxymethyl = O=C(O)C*

Tests used:
[1] = tested on: HepG2, COS 7 and CHO cells; assay: Luciferase gene expression, result stated for each of three cell lines, Example 6; type: cell-based
Experimental: HepG2 cells (1.5×10^5) were plated on 6×35 mm wells and grown to 50% confluencey in MEM supplemented with 10% FBS, penicillin and streptomycin (100 U/ml), sodium pyruvate (100 mM), and L-glutamine (2 mM). Transfections were performed in MEM (2 ml per 35 mm well) with 2% FBS with and without 80 μM chloroquine. Peptide DNA condensates (10 μg of DNA of 0.2 ml HBM) were added dropwise to triplicate wells. After a 5 h incubation at 37° C., the medium was replaced with MEM supplemented with 10% FBS. After 24 h, cells were washed with ice-cold phosphate buffered saline (calcium and magnesium free) and then treated with 0.5 ml of ice-cold lysis buffer (25 mM) Tris chloride pH 7.8, 1 mM EDTA, 8 mM magnesium chloride, 1% Triton X-100, 1 mM DTT) for 10 min. […]
Lysis buffer (300 μl), sodium-ATP (4 μl of a 180 mM solution, pH 7, 4° C.) and cell lysate (100 μl, 4° C.) were combined in a test tube, briefly mixed and immediately placed in the luminometer. Luciferase relative light units (RLU) were recorded on a Lumat™ LB 9501 (Berthoid Systems, Germany) with 10 sec integration after automatic injection of 100 μl of 0.5 mM D-luciferin (prepared fresh in lysis buffer without DTT). […] Protein concentrations were measured by Bradford assay using bovine serum albumin as a standard (Bradford, 1976). […]

[2] = Shear stress stability of cross-linked DNA condensates (salt sonication), Example 5; type: physicochemical; conditions: 30 sec sonication; highest lane 2.5 M
Experimental: Peptide DNA condensates (200 μl of 50 μg/ml) were formed and incubated at RT for 30 min and then combined with 0 to 200 μl of 5 M sodium chloride and normalized to 400 μl with HBM to achieve a final sodium chloride concentration of 0, 0.2, 0.4, 0.8, 1.0, 1.5, 2.0, and 2.5 M. Each sample was sonicated for 30 sec with a 100 W Microson™ XL-2000 ultrasonic probe homogenizer (Kontes, Vineland N.J.) with a vibrational amplitude of 6 to fragment uncondensed DNA (Adami et al., 1998). DNA condensates were digested with 30 μg of trypsin for 12 h at 37° C. then electrophoresed on an agarose gel and visualized by ethidium bromide staining.

HepG2 cells = assay: Cell uptake of 125I-DNA condensates in HepG2 cells, Example 5; type: cell-based; conditions: HepG2, 5 h transfection
Experimental: Iodinated plasmid DNA (pCMVL) was prepared with specific activity of 300 nCi per μg of DNA as described previously (Terebesi et al., 1998). Prior to forming DNA condensates, the specific activity of the ^125I DNA was adjusted to 4.5 nCi μg of DNA by combining with unlabeled plasmid. DNA condensates were prepared using AlkCWK18 or peptide II as described above. Peptide ^125I-DNA condensates (10 μg) were used to transfect HepG2 and COS 7 cells for 5 h according to the procedure described above. The radioactive media was removed, cells were washed once with 2 ml of 1 M sodium chloride and three times with 2 ml of cold PBS and then harvested with 1 ml of lysis buffer. The cell-associated radioactivity from triplicate transfections was quantified by gamma counting.

[3] = Shear stress stability (salt sonication assay), Example 6; type: physicochemical; conditions: 30 sec sonication; highest tested 2.5 M
Experimental: The relative stability of peptide DNA condensates were examined using a salt sonication assay (Adami and Rice, 1999). Peptide DNA condensates (200 μl of 50 μg/ml) were formed as described above, incubated at RT for 30 min and then combined with 0-200 μl of 5 m […] and normalized to 400 μl with HBM to achieve a final sodium chloride concentration of 0, 0.2, 0.4, 0.8, 1.0, 1.5, 2.0 and 2.5 M. Each sample was sonicated for 30 sec with a 100 W Microson™ XL-2000 ultrasonic probe homogenizer (Kontes, Vineland N.J.) with a vibrational amplitude of 5 fragment uncondensed DNA. DNA condensates were digested with 30 μg to trypsin for 12 h at 37° C., electrophoresed on a 1% agarose gel electrophoresed in TEA buffer for 2 h, then visualized by ethidium bromide staining and destaining prior to photography on a transilluminator.

[4] = QELS particle size and zeta potential of cross-linking peptide DNA condensates, Example 5; type: physicochemical; conditions: for Particle Size Mean Diameter, Oxidized, 15° / Particle Size Mean Diameter, Oxidized, 90°: HBM after 2 h incubation, 50 μg/ml DNA, 0.4 nmol peptide per μg DNA; for Particle Size Mean Diameter, Oxidized, 15°: scattering angle 15°; for Particle Size Mean Diameter, Oxidized, 90°: scattering angle 90°; for Particle Size Mean Diameter, Saline: HBM with added saline (0.15 M) after 15 min; for Particle Size Mean Diameter, Reduced: following addition of TCEP (1 mM)
Method in brief: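 Condensates at 50 μg/ml DNA in HBM, 0.4 nmol peptide per μg DNA (charge ratio ~2:1); size by QELS at 15° and 90°, mean diameter from diffusion coefficient by unimodal cumulant analysis. Peptide IV series: 7.5-37.5 nmol peptide with 75 μg DNA, charge ratio 0.5-2.5; zeta potential averaged over 10 determinations.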

[5] = QELS particle size and zeta potential of peptide DNA condensates, Example 6; type: physicochemical; conditions: charge ratio 4:1, 50 μg/ml DNA in HBM; for Particle Size (nm): 90°, average and SD of three, No particles formed; for Zeta Potential (mV): average and SD of ten
Experimental: The particle size and zeta potential of peptide DNA condensates were determined by quasielastic light scattering (QELS) using a Brookhave ZetaPlus™. Particle size analysis was performed in triplicate at a DNA concentration of 50 μg/ml in HBM at a charge ratio of 4:1 and a scattering angle of 90°. Data analysis utilized a multimodal volume distribution option included with the instrument. Zeta potential was also determined using 50 μg/ml peptide DNA condensates prepared at a 4:1 charge ratio in HBM. The reported zeta potential was averaged from ten determinations.

Substance	lower gene expression in the absence of chloroquine relative to presence of 80 μM chloroquine ([1]; in each cell line)	sodium chloride concentration up to which DNA is protected from sonicative fragmentation [2] [M]	125I-DNA uptake, % of dose (HepG2 cells)	sodium chloride concentration up to which DNA condensates are stable [3] [M]	Particle Size Mean Diameter, Oxidized, 15° [4] [nm]	Particle Size Mean Diameter, Oxidized, 90° [4] [nm]	Particle Size Mean Diameter, Saline [4] [nm]	Particle Size Mean Diameter, Reduced [4] [nm]	Particle Size (nm) [5] [nm]	Zeta Potential (mV) [5] [mV]	enhancement of gene expression over peptide 1 DNA condensates ([1]; in each cell line tested, charge ratio 4, 80 μM chloroquine) [fold]
Alk-S-Cys-Trp-Lys18 (C(Carboxymethyl)WKKKKKKKKKKKKKKKKKK) [AlkCWK18]	10-15 fold	0.4	9.5 % of dose	0.4	97	95	1215	74	64 ± 11	26 ± 1	
Cys-Trp-Lys17-Cys (CWKKKKKKKKKKKKKKKKKC) [Peptide II]		1.0	8.7 % of dose	1	31	42	257	121	53 ± 16	28 ± 9	10 to 40
